Data taken from the supplement of paper PMC10567573.

B1: TOR1AIP2 (parent)
chain: YTSSQKVSPIQIDGAGRTWQDSDT

Variants of: B1
Assay: protein stability index of a GFP-peptide fusion (GPS, HEK-293T) (PSI 1-6); higher = more stable
Details: c terminus: a fixed tail appended
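Note: lentivirally expressed fusions sorted by FACS into six bins by GFP to DsRed ratio, PSI derived from sequencing read proportions per bin multiplied by bin number.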

| Variant | protein stability index |
| --- | --- |
| YTSSQKVSPIQIDGAGRTIQDSDT [W19I] | 3.96 |
| YTSSQKVSPIQIDGAGRTFQDSDT [W19F] | 3.92 |
| YTSSQKVSPIQIDGAGRTGQDSDT [W19G] | 3.74 |
| YTSSQKVSPIQIDGAGRTTQDSDT [W19T] | 4.35 |
| YTSSQKVSPIQIDGAGRTNQDSDT [W19N] | 4.04 |
| YTSSQKVSPIQIDGAGRTKQDSDT [W19K] | 4.56 |
| YTSSQKVSPIQIDGAGRTQQDSDT [W19Q] | 4.57 |
| YTSSQKVSPIQIDGAGRTWQDSDP [T24P] | 3.55 |
| YTSSQKVSPIQIDGAGRTWQDSDQ [T24Q] | 2.63 |
| YTSSQKVSPIQIDGAGRTWQDSDY [T24Y] | 2.17 |
| YTSSQKVSPIQIDGAGRTWQDSDC [T24C] | 3.52 |
| YTSSQKVSPIQIDGAGRTWQDSDD [T24D] | 4.12 |
| YTSSQKVSPIQIDGAGRTWQDSDW [T24W] | 2.87 |
| YTSSQKVSPIQIDGAGRTWQDSDA [T24A] | 3.08 |
| YTSSQKVSPIQIDGAGRTWQDSDH [T24H] | 3.51 |
| YTSSQKVSPIQIDGAGRTWQDSDK [T24K] | 3.29 |
| YTSSQKVSPIQIDGAGRTWQDSDR [T24R] | 2.95 |
| YTSSQKVSPIQIDGAGRTWQDSDV [T24V] | 2.86 |
| YTSSQKVSPIQIDGAGRTWQDSDS [T24S] | 3.85 |
| YTSSQKVSPIQIDGAGRTWQDSDN [T24N] | 3.15 |
| YTSSQKVSPIQIDGAGRTWQDSDE [T24E] | 5 |
| YTSSQKVSPIQIDGAGRTWQDSDM [T24M] | 2.58 |
| YTSSQKVSPIQIDGAGRTWQDIDT [S22I] | 3.12 |
| YTSSQKVSPIQIDGAGRTWQDEDT [S22E] | 4.08 |

| Variant | protein stability index |
| --- | --- |
| YTSSQKVSPIQIDGAGRTWQDFDT [S22F] | 2.71 |
| YTSSQKVSPIQIDGAGRTWQDKDT [S22K] | 2.95 |
| YTSSQKVSPIQIDGAGRTWQDVDT [S22V] | 3.17 |
| YTSSQKVSPIQIDGAGRTWQDLDT [S22L] | 2.35 |
| YTSSQKVSPIQIDGAGRTWQDDDT [S22D] | 4.55 |
| YTSSQKVSPIQIDGAGRTWQDHDT [S22H] | 3.06 |
| YTSSQKVSPIQIDGAGRTWQDRDT [S22R] | 3.29 |
| YTSSQKVSPIQIDGAGRTWQDYDT [S22Y] | 2.51 |
| YTSSQKVSPIQIDGAGRTWQDNDT [S22N] | 3.55 |
| YTSSQKVSPIQIDGAGRTWQDGDT [S22G] | 2.74 |
| YTSSQKVSPIQIDGAGRTWQDWDT [S22W] | 2.85 |
| YTSSQKVSPIQIDGAGRTWQDTDT [S22T] | 3.63 |
| YTSSQKVSPIQIDGAGRTWQDCDT [S22C] | 3.18 |
| YTSSQKVSPIQIDGAGRTWQDADT [S22A] | 4.18 |
| YTSSQKVSPIQIDGAGRTWQDQDT [S22Q] | 3.64 |
| YTSSQKVSPIQIDGAGRTWQDMDT [S22M] | 2.18 |
| YTSSQKVSPIQIDGAGRTWQDPDT [S22P] | 3.67 |
| YTSSQKVSPIQIDGAGRTWQISDT [D21I] | 2.71 |
| YTSSQKVSPIQIDGAGRTWQKSDT [D21K] | 3.46 |
| YTSSQKVSPIQIDGAGRTWQPSDT [D21P] | 2.81 |
| YTSSQKVSPIQIDGAGRTWQFSDT [D21F] | 2.33 |
| YTSSQKVSPIQIDGAGRTWQESDT [D21E] | 3.27 |
| YTSSQKVSPIQIDGAGRTWQCSDT [D21C] | 2.85 |
| YTSSQKVSPIQIDGAGRTWQVSDT [D21V] | 2.39 |

| Variant | protein stability index |
| --- | --- |
| YTSSQKVSPIQIDGAGRTWQLSDT [D21L] | 2.46 |
| YTSSQKVSPIQIDGAGRTWQMSDT [D21M] | 2.36 |
| YTSSQKVSPIQIDGAGRTWQSSDT [D21S] | 2.95 |
| YTSSQKVSPIQIDGAGRTWQTSDT [D21T] | 2.62 |
| YTSSQKVSPIQIDGAGRTWQYSDT [D21Y] | 2.43 |
| YTSSQKVSPIQIDGAGRTWQASDT [D21A] | 2.73 |
| YTSSQKVSPIQIDGAGRTWQHSDT [D21H] | 2.34 |
| YTSSQKVSPIQIDGAGRTWQNSDT [D21N] | 3.29 |
| YTSSQKVSPIQIDGAGRTWQQSDT [D21Q] | 2.45 |
| YTSSQKVSPIQIDGAGRTWQGSDT [D21G] | 2.62 |
| YTSSQKVSPIQIDGAGRTWQRSDT [D21R] | 2.6 |
| YTSSQKVSPIQIDGAGRTWQDSCT [D23C] | 2.83 |
| YTSSQKVSPIQIDGAGRTWQDSNT [D23N] | 3.41 |
| YTSSQKVSPIQIDGAGRTWQDSRT [D23R] | 2.48 |
| YTSSQKVSPIQIDGAGRTWQDSFT [D23F] | 2.04 |
| YTSSQKVSPIQIDGAGRTWQDSTT [D23T] | 2.17 |
| YTSSQKVSPIQIDGAGRTWQDSPT [D23P] | 2.64 |
| YTSSQKVSPIQIDGAGRTWQDSGT [D23G] | 2.72 |
| YTSSQKVSPIQIDGAGRTWQDSIT [D23I] | 1.44 |
| YTSSQKVSPIQIDGAGRTWQDSMT [D23M] | 2.06 |
| YTSSQKVSPIQIDGAGRTWQDSYT [D23Y] | 2.81 |
| YTSSQKVSPIQIDGAGRTWQDSQT [D23Q] | 3.41 |
| YTSSQKVSPIQIDGAGRTWQDSST [D23S] | 2.73 |
| YTSSQKVSPIQIDGAGRTWQDSWT [D23W] | 1.55 |

| Variant | protein stability index |
| --- | --- |
| YTSSQKVSPIQIDGAGRTWQDSAT [D23A] | 3.06 |
| YTSSQKVSPIQIDGAGRTWQDSHT [D23H] | 2.16 |
| YTSSQKVSPIQIDGAGRTWQDSKT [D23K] | 2.55 |
| YTSSQKVSPIQIDGAGRTWDDSDT [Q20D] | 3.79 |
| YTSSQKVSPIQIDGAGRTWHDSDT [Q20H] | 2.71 |
| YTSSQKVSPIQIDGAGRTWEDSDT [Q20E] | 4.31 |
| YTSSQKVSPIQIDGAGRTWFDSDT [Q20F] | 2.62 |
| YTSSQKVSPIQIDGAGRTWIDSDT [Q20I] | 2.42 |
| YTSSQKVSPIQIDGAGRTWSDSDT [Q20S] | 3.69 |
| YTSSQKVSPIQIDGAGRTWADSDT [Q20A] | 3.43 |
| YTSSQKVSPIQIDGAGRTWRDSDT [Q20R] | 2.62 |
| YTSSQKVSPIQIDGAGRTWCDSDT [Q20C] | 3.34 |
| YTSSQKVSPIQIDGAGRTWYDSDT [Q20Y] | 2.84 |
| YTSSQKVSPIQIDGAGRTWNDSDT [Q20N] | 4.09 |
| YTSSQKVSPIQIDGAGRTWPDSDT [Q20P] | 2.69 |
| YTSSQKVSPIQIDGAGRTWTDSDT [Q20T] | 3.03 |
| YTSSQKVSPIQIDGAGRTWLDSDT [Q20L] | 2.58 |
| YTSSQKVSPIQIDGAGRTWMDSDT [Q20M] | 2.75 |
| YTSSQKVSPIQIDGAGRTWVDSDT [Q20V] | 3.54 |
| YTSSQKVSPIQIDGAGRTWKDSDT [Q20K] | 3.16 |
| YTSSQKVSPIQIDGAGRTWGDSDT [Q20G] | 3.08 |
| YTSSQKVSPIQIDGAGRTWWDSDT [Q20W] | 2.01 |
